{"source": "the DeepSol protein solubility set"}
{"assay": "soluble on expression in E. coli; label from the status in PepcDB or PDB records"}
{"sequence": "MGSDKIHHHHHHMAQQTPLYEQHTLCGARMVDFHGWMMPLHYGSQIDEHHAVRTDAGMFDVSHMTIVDLRGSRTREFLRYLLANDVAKLTKSGKALYSGMLNASGGVIDDLIVYYFTEDFFRLVVNSATREKDLSWITQHAEPFGIEITVRDDLSMIAVQGPNAQAKAATLFNDAQRQAVEGMKPFFGVQAGDLFIATTGYTGEAGYEIALPNEKAADFWRALVEAGVKPCGLGARDTLRLEAGMNLYGQEMDETISPLAANMGWTIAWEPADRDFIGREALEVQREHGTEKLVGLVMTEKGVLRNELPVRFTDAQGNQHEGIITSGTFSPTLGYSIALARVPEGIGETAIVQIRNREMPVKVTKPVFVRNGKAVA", "soluble on expression in E. coli": "not soluble"}
{"sequence": "MSLDYTYADDSLTLHTDMYQINMMQTYWELGRADLHAVFECYFREMPFNHGYAIFAGLERLVNYLENLTFTESDIAYLREVEEYPEDFLTYLANFEFKCTVRSALEGDLVFNNEPLIQIEGPLAQCQLVETALLNMVNFQTLIATKAARIKSVIGDDPLLEFGTRRAQELDAAIWGTRAAYIGGADATSNVRAGKIFGIPVSGTHAHSLVQSYGNDYEAFMAYAKTHRDCVFLVDTYDTLKAGVPSAIRVAREMGDKINFLGVRIDSGDMAYISKRVREQLDEAGFTEAKIYASNDLDENTILNLKMQKSKIDVWGVGTKLITAYDQPALGAVFKLVSIEGEDGQMKDTIKLSSNAEKVTTPGKKQVWRITRKSDKKSEGDYVTLWNEDPRQEEEIYMFHPVHTFINKYVRDFEARPVLQDIFVEGKRVYELPTLDEIKQYAKENLDSLWEEYKRDLNPQKYPVDLSTDCWNHKMNLLEKVRKDVKHLTETVNKEAEGHHHHHH", "soluble on expression in E. coli": "soluble"}
{"sequence": "MGSDKIHHHHHHMIRGLRQIEPYVAGVQPAERKMIKLNTNENAYGASPKVREALANFDVDNLRKYSTLEQADLRAALANNLKVKPEQLMIANGSDDVLSIAFLAFFNNDEPVLFPDLTYGFYKVWADLYRVNYHEIPLAEDFTINTEDYLADNGGIILTNPNAPTGIYKPLNEIEKLLKANQDTVVIIDEAYISFGGQSALSLLNKYNNLVITRTFSKDAALAGLRVGYAIANEPLIAVMNAVKHSINPYSVDLLAERLATAAVEDWSYYQENAKKIQKTRAWFSEQLVKQGFDVLPSQANFVLTKPHDLATAKLFEELEARKIYVRYFPKVERIKDYLRISMGTQEEMEEVVKAIEEIRG", "soluble on expression in E. coli": "not soluble"}
{"sequence": "MGSDKIHHHHHHMATKSLRRQDLEVHLGSTGQVVGRLYLGSGKRSAFSYDERWLRDARFFTLSPDLLPVLSVQHPQEVFFRALEDTAPDSWGERVIRRAHARLRQQDGETPPLEPVDFLMWVDDEARVGALRLFDPHAKVYLRSGATPGHVPPLVELDKVVQAARALEAGTETARDLQYLLGQGTSLGGARPKSSVRDTDGRLALGKFPSQADRRDVIRGEVLAMHLAAKAGIKVAAARVELIGGTAVAIIRRFDRTDDGGRIPYVSAATMLQSDGRDTVHAYTELVDVLLREGADPIADIHQLWRRLVLNFLICNTDDHLRNTGFLYDSRNHGWRLSPAFDLNPMPGDRRESKTWLTEDSGPIESRDMLMEGAPYFRLAAEEAAAIWTEVAQAVGSWRVVARGLGMQGTDLVDFEPAFA", "soluble on expression in E. coli": "not soluble"}
{"sequence": "QLKNNAAIQIDRVDNTEITETVSFDAEPTYVDDPEAPAGDETVVEEGAPGTKEVTRTVTTVNGQEESSTVINEVEITAAKPATISRGTKT", "soluble on expression in E. coli": "not soluble"}
{"sequence": "MKYLGLCTDLYELTMAQSYLYEGKTGTAVFSLFVRKLPEKRNFLISAGLETLVERIKNFKFGDEEIKYLKSLGIFKDDFLDYLKDFEFSGNVYAIPEGRIVFQNEPLVQVEAPIPEAQLLETLVINTIQFETMIASKAVRSYLVAKGKKLVDFGFRRAHGLEAGILAARASYIAGFDGTSNVEAGREFGIPVVGTMAHSYVMIFDKEEDAFRAFAKLYPKNAIFLIDTYDTIEAAKKVVDLAKEGVPVVGVRIDSGDIVKLSKEVRKILDENGLKNVRIIVSGGVDEYKIKEWFDRGAPIDAFGVGTKFITSADAPYFDIAYKLVEYEGKPKYKLSPGKKTFPYKRQVYRYYENGKMKYDETAKWESKREGEPLVELVMKNGKLIKELPSLKEIREVVMSELEKLPENYKDITKHYEYEVKILDWE", "soluble on expression in E. coli": "soluble"}
{"sequence": "MQFTLEHAQDVLSGMPDPTFILSEDGIYIDVFGGTDKKAYHDGSNLIGKTLHSVLEKEQADWFIEQINRSLNQDSIVTIEYKMCADSIQGIDANSGPKGDLYYEGKICPLTINYQGRRVVLILTRNISNRHRVETLLRHQSQI", "soluble on expression in E. coli": "not soluble"}
{"sequence": "MRCKGFLFDLDGTLVDSLPAVERAWSNWARRHGLAPEEVLAFIHGKQAITSLRHFMAGKSEADIAAEFTRLEQIEATETEGITALPGAIALLNHLNKAGIPWAIVTSGSMPVARARHKIAGLPAPEVFVTAERVKRGKPEPDAYLLGAQLLGLAPQECVVVEDAPAGVLSGLAAGCHVIAVNAPADTPRLNEVDLVLHSLEQITVTKQPNGDVIIQ", "soluble on expression in E. coli": "not soluble"}
{"sequence": "GAMVSGQIMHAVGEEGGHVKYVCKIENYDQSTQVTWYFGVRQLENSEKYEITYEDGVAILYVKDITKLDDGTYRCKVVNDYGEDSSYAELFVKGVRE", "soluble on expression in E. coli": "soluble"}
{"sequence": "MSLNPAYFVLLVEELKTKYLVKDICQILQVPLSTYYRWKKKDFSQSSLEKKIGQLCKAYQFTYGYRKIAALMKQEEQVGINKVQRIMQKYQWQCQVKVKKKNRPGSAYYQTENHLNRNFQASQPLEKLTTDITYLYFGDCRLYLSSIMDLYNGEIVAYSIGEKQDTELVLDTLNQLSLPEGSLLHSDQGSVYTSYEYYQCCKKKNVIRSMSRKGTPADNAPIECFHSSLKCETFYHKTAYKYAKSIVIQIVKDYIKYYNEKRIQQKLGYQSPINFRKQAEGHHHHHH", "soluble on expression in E. coli": "not soluble"}
{"sequence": "MSLIKLRPHHIMCFQGYEGKGYSQDFIDNMDNIYRDLKEKDNLKIKIVFSTDDVCGSCPNKISDNNCGCNEKVMAIDNKVIRVLKLKQKIYTYNELVNKLRLNINEGVMKDICGQCVWYENSKCKTSILSLEGHHHHHH", "soluble on expression in E. coli": "soluble"}
{"sequence": "MDNDRDTVEFWSSLFQSFADSEPKDNPYPVVRSPIMTMSTPMAIDEPVEPWKVLEYGGKEVRPMAIDEPAEPWKALEYGGKDVRPMAIDVPAEPWKVGGKEAQPANAAAEAGYKNVNTDQEKSTQKATEKVIM", "soluble on expression in E. coli": "soluble"}
{"sequence": "APAHADHQITKRTDAENMYNTIQFLSQAPRVAGSPEELKAVRYIEQQFKSYGYHVEVQPFQFEGYTAPSEVTLKIGTEKKEGEAFTYSPNSDVTAELVYVGLGTTADVAGKDLNGKIALIQRGNISFADKVRNAAKQGAKAVIIYNNTDGKLNGTLGGSDASFVAAVGITKQEGDALAANLRAGEKITATVKVAGAEVKTLTSHNVIATKKPDANKKNTNDIIIIGSHHDSVEKAPGANDDASGVAVTLELARVMSKLKTDTELRFITFGAEENGLIGSKKYAASLSEDEIKRTIGMFQLDMVGSKDAGDLIMYTIDGKKNRVTDLGAAASSRLSGVLPYGQEGRSDHESFHALGIPAALFIHAPVEPWYHTPNDTLDKISKEKLDNVADIVGSAVYQAARPGELVIEPIDYPRRNVELQN", "soluble on expression in E. coli": "soluble"}
{"sequence": "MAELQMLLEEEIPGGRRALFDSYTNLERVADYCENNYIQSADKQRALEETKAYTTQSLASVAYLINTLANNVLQMLDIQASQLRRMESSINHISQTVDIHKEKVARREIGILTTNKNTSRTHKIIAPANLERPVRYIRKPIDYTILDDIGHGVKVSTQNMKMGGLPRTTPPTQKPPSPPMSGKGTLGRHSPYRTLEPVRPPVVPNDYVPSPTRNMAPSQQSPVRTASVNQRNRTYSSSGSSGGSHPSSRSSSRENSGSGSVGVPIAVPTPSPPSVFPGHPVQFYSMNRPASRHTPPTIGGSLPYRRPPSITSQTSLQNQMNGGPFYSQNPVSLAPPPPSILQVTPQLPLMGFVARVQENISDTPPPPPPVEEPVFDESPPPPPPPEDYEEEEAAVVEYSDPYAEEDPPWAPRSYLEKVVAIYDYTKDKEDELSFQEGAIIYVIKKNDDGWYEGVMNGVTGLFPGNYVESIMHYSE", "soluble on expression in E. coli": "soluble"}
{"sequence": "MADDFKTAQMNNPHLRNYVEKFKKTYMKVPEFVPSLSRDFKEIKYPNIIYPIGDPIFIHLYGTPNLKTRYIAIEPKLNGSEERKKYFDILDKILEYAPYSDIPENDEEFGKVVTKLFDMVAK", "soluble on expression in E. coli": "not soluble"}
{"sequence": "MGSDKIHHHHHHMANVIKLHKGLNINLKGKPAQEFFDVKQPDIYAIVPDDFHGVTPKVVVKEQEYVTAGGTLFVDKNHPEVKFVSPVSGVVTSVERGERRKVLSISIAAAKEQDYEEFGKKDVSTLTGEQVKAALLEAGLFSFIIQRPYIVVADPNAKPKGIFVSAFDTNPLAADFEFVLKGQEKDFQTGLDALAKMAKTYLNISVEQKSPALTNAKNVTVTAFDGPNPAGNVGVQINHISPINKGETVWTLRAEEVIFIGRLFNTGRVDLTRTIALTGSEVKKPAYCKLKVGALLTDIFAGRVNGGKNLRYINGNVLTGTLVKPNGFLGAHATSLTVIPEGDDRHEFLGFIMPRTDQYSANRSYFSWLCGNKEYTLDARIKGGERHMIMSGEYDKVFPMSIFPEYLIKAIIAGDIDRMEALGIYEVAPEDFAVCEFVDSSKLELQRIVRQGLDMLRKEMC", "soluble on expression in E. coli": "not soluble"}
{"sequence": "MKYISPGFVDAHSHIGMIPDGLEWEFQEANDFYSPIAPHLRAVDGFDPYDEAFKEAIAGGVTTVATGPGSANVMGGIGLLAKTYEEGFEKIIKPEAFIKMALGPKRPREYKSKYPYPTTRMGTVALMRTWFKRAREFMEGKIKTDNIDEEEIEMLRLLARALKREIQVKIHLSTSPDEIYAAIRIIKEFNLNATIDHAFGSQLVADMLSREGIPVIYGPPMITRIASFFRYVDDKAPVLLFKKGVNVSIMTDHPVLPEKHLRLLAAVVARNGLSLDDALKLITINPAKALGIDRFVGSLEHHHHHH", "soluble on expression in E. coli": "not soluble"}
{"sequence": "MLITKNQAEKWFDNSLGKQFNPDLFYGFQCYDYANMFFMIATGERLQGLYAYNIPFDNKARIEKYGQIIKNYDSFLPQKLDIVVFPSKYGGGAGHVEIVESANLNTFTSFGQNWNGKGWTNGVAQPGWGPETVTRHVHYYDDPMYFIRLNFPDKVSVGDKAKSVIKQATAKKQAVIKPKKIMLVAGHGYNDPGAVGNGTNERDFIRKYITPNIAKYLRHAGHEVALYGGSSQSQDMYQDTAYGVNVGNNKDYGLYWVKSQGYDIVLEIHLDAAGESASGGHVIISSQFNADTIDKSIQDVIKNNLGQIRGVTPRNDLLNVNVSAEININYRLSELGFITNKKDMDWIKKNYDLYSKLIAGAIHGKPIGGLVAGNVKTSAKNQKNPPVPAGYTPDKNNVPYKKETGYYTVANVKGNNVRDGYSTNSRITGVLPNNATIKYDGAYCINGYRWITYIANSGQRRYIATGEVDKAGNRISSFGKFSAVLEHHHHHH", "soluble on expression in E. coli": "not soluble"}
{"sequence": "MGSDKIHHHHHHMRILWINHRDPKHPQAGGAEVRLYEIARRLVKMGHEVMVLCEKVSRLPGEEVLEGIRIKRSGGRASIHLLAPLYVRKHGHEYDVIVDDIAHAVPWYSPLVTKTPVVAQIHHVHQDVVYIELPKPLAWIVSRAEKTIAKIYRRFIAVSQSTKKELAKRLGIDPDRIAVVPNGVDLEKYRPGSKDPRPTILWAGRIKMYKNLDHLLKAYRIVKQEIPDAQLIIIGTGDQEQKMRELAKKLEPRDVHFLGKMSEQEKIMWMQRAWIIVSTSMIEGWGITITEAAACKIPAIAYNVPGLRDSVKHMETGILVEPGNIEQLAKAIAWLLTDNSLRNKLSENAYNYAQSFSWDNTAITFLNILEDITRI", "soluble on expression in E. coli": "not soluble"}
{"sequence": "GPLGSCSSPQVEIPTTYSPEKIAQLQVYVNPIAVARDGMEKRLQGLIADQNWVDTQTYIHGPLGQLRRDMLGLASSLLPKDQDKAKTLAKEVFGHLERLDAAAKDRNGSQAKIQYQEALADFDSFLNLLPQAS", "soluble on expression in E. coli": "soluble"}
